Data on four molecules can be found in patent US20150344570A1 (published 2015).

What all share (test): SPR (Biacore); KD of H240-Kn061/H240-Hl071/L73-k0 divided by KD of the variant
Test [1] concerns the target T1, FcgRIIb (FcγRIIb) extracellular domain with C-terminal His tag (human, UniProt P31994 43-217).
T1 construct: extracellular domain; not shown: His tag attached to the C terminus
T1 sequence (looked up): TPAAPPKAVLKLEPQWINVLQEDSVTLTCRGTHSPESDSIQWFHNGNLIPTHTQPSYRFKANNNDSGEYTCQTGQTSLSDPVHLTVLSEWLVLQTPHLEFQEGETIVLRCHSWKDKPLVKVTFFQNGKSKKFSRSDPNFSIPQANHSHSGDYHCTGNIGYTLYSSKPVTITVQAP
The method, then: (§1) The antibodies were assessed for the binding to each FcgR. […] The resultant value was defined as relative KD, and used as an assessment indicator.
(§2) Analysis of interaction between objective antibody and the FcγR was carried out using Biacore T100 (GE Healthcare), Biacore T200, Biacore A100, and Biacore 4000. HBS-EP+ (GE Healthcare) was used as the running buffer, and the measurement temperature was set to 25° C. Chips produced by immobilizing the antigen peptide by the amine coupling method to a Series S sensor Chip CM5 (GE Healthcare), chips produced by allowing preliminarily biotinylated antigen peptides to interact with and immobilize onto a Series S Sensor Chip SA (certified) (GE Healthcare), chips produced by immobilizing Protein L (ACTIGEN, BioVision) to Series S Sencor Chip CM5 (GE Healthcare), or chips produced by immobilizing Protein A/G (Thermo Scientific) to Series S Sencor Chip CM5 (GE Healthcare) were used. Antibodies of interest were captured onto these chips, and allowed to interact to each FcγR diluted with running buffer.

For test [2], the target named is T2, FcgRIIIa F (FcγRIIIa type F) extracellular domain with C-terminal His tag (human, UniProt P08637 17-208).
T2 construct: extracellular domain; also called FcγRIIIa F; 3aF; not shown: His tag attached to the C terminus
The method, then: as §1, §2

For test [3], the target named is T3, FcgRIIIa V (FcγRIIIa type V) extracellular domain with C-terminal His tag (human, UniProt P08637 17-208).
T3 construct: extracellular domain; also called FcγRIIIa V; not shown: His tag attached to the C terminus
The protocol:
as §1, §2

T2 sequence (P08637 17-208): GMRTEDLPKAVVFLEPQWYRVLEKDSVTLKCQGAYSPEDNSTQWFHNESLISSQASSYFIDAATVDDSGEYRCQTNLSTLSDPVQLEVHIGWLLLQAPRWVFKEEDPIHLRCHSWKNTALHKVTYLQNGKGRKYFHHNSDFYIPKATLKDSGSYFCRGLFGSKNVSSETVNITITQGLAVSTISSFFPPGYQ
T3 sequence (P08637 17-208 F176V limits assumed): as the sequence (P08637 17-208) above, with F160V counted along it

B1: H240-Kn061/H240-Hl071/L73-k0 variant with Y234G in H240-Kn061 (antibody, human IgG1, kappa)
heavy 1: QDQLVQSGAEVKKPGASVKVSCKASGFNIKDTYIQWVRQAPGQGLEWMGRIDPLRKQTKYREKFEGRVTITADTSTNTAYMELSSLRSEDTAVYYCVRSGREFDYWGQGTLVTVSSASTKGPSVFPLAPSSKSTSGGTAALGCLVKDYFPEPVTVSWNSGALTSGVHTFPAVLQSSGLYSLSSVVTVPSSSLGTQTYICNVNHKPSNTKVDKKVEPKSCDKTHTCPPCPAPEGYWGPSVFLFPPKPKDTLMISRTPEVTCVVVDVSDEDPEVKFNWYVDGVEVHNAKTKPREEQYNATYRVVSVLTVLHQDWLNGKEYKCKVSNKALPAPIEKTISKAKGQPREPQVCTLPPSRDELTKNQVSLWCLVKGFYPSDIAVEWESNGQPENNYKTTPPVLDSDGSFFLYSKLTVDKSRWQQGNVFSCSVMHEALHNHYTQKSLSLSP
heavy 2: QDQLVQSGAEVKKPGASVKVSCKASGFNIKDTYIQWVRQAPGQGLEWMGRIDPLRKQTKYREKFEGRVTITADTSTNTAYMELSSLRSEDTAVYYCVRSGREFDYWGQGTLVTVSSASTKGPSVFPLAPSSKSTSGGTAALGCLVKDYFPEPVTVSWNSGALTSGVHTFPAVLQSSGLYSLSSVVTVPSSSLGTQTYICNVNHKPSNTKVDKKVEPKSCDKTHTCPPCPAPELLGGPSVFLFPPKPKDTLMISRTPEVTCVVVDVSHEDPEVKFNWYVDGVEVHNAKTKPREEQYNSTYRVVSVLTVLHQDWLNGKEYKCKVSNDALPMPIEETISKAKGQPREPQVYTLPPSRCELTKNQVSLSCAVKGFYPSDIAVEWESNGQPENNYKTTPPVLDSDGSFFLVSKLTVDKSRWQQGNVFSCSVMHEALHNHYTQKSLSLSP
light: DIQMTQSPSSLSASVGDRVTITCRASQDIHKYIAWYQQKPGQAPRLLIQYTSTLQPGVPSRFSGSGSGTDYTFTISSLQPEDIATYYCLQYEQLRTFGGGTKVEIKRTVAAPSVFIFPPSDEQLKSGTASVVCLLNNFYPREAKVQWKVDNALQSGNSQESVTEQDSKDSTYSLSSTLTLSKADYEKHKVYACEVTHQGLSSPVTKSFNRGEC
notes: anti-epiregulin heterodimerized IgG1; also called H240-Kn061 Y234G
As to B1, the figures for the “relative KD” value in test [1], in test [2] and in test [3] were 0.9 ratio, 0.8 ratio and 0.9 ratio, respectively.

B2: H240-Kn061/H240-Hl071/L73-k0 variant with Y235E in H240-Kn061 (antibody, human IgG1, kappa)
heavy 1: QDQLVQSGAEVKKPGASVKVSCKASGFNIKDTYIQWVRQAPGQGLEWMGRIDPLRKQTKYREKFEGRVTITADTSTNTAYMELSSLRSEDTAVYYCVRSGREFDYWGQGTLVTVSSASTKGPSVFPLAPSSKSTSGGTAALGCLVKDYFPEPVTVSWNSGALTSGVHTFPAVLQSSGLYSLSSVVTVPSSSLGTQTYICNVNHKPSNTKVDKKVEPKSCDKTHTCPPCPAPEYEWGPSVFLFPPKPKDTLMISRTPEVTCVVVDVSDEDPEVKFNWYVDGVEVHNAKTKPREEQYNATYRVVSVLTVLHQDWLNGKEYKCKVSNKALPAPIEKTISKAKGQPREPQVCTLPPSRDELTKNQVSLWCLVKGFYPSDIAVEWESNGQPENNYKTTPPVLDSDGSFFLYSKLTVDKSRWQQGNVFSCSVMHEALHNHYTQKSLSLSP
heavy 2: QDQLVQSGAEVKKPGASVKVSCKASGFNIKDTYIQWVRQAPGQGLEWMGRIDPLRKQTKYREKFEGRVTITADTSTNTAYMELSSLRSEDTAVYYCVRSGREFDYWGQGTLVTVSSASTKGPSVFPLAPSSKSTSGGTAALGCLVKDYFPEPVTVSWNSGALTSGVHTFPAVLQSSGLYSLSSVVTVPSSSLGTQTYICNVNHKPSNTKVDKKVEPKSCDKTHTCPPCPAPELLGGPSVFLFPPKPKDTLMISRTPEVTCVVVDVSHEDPEVKFNWYVDGVEVHNAKTKPREEQYNSTYRVVSVLTVLHQDWLNGKEYKCKVSNDALPMPIEETISKAKGQPREPQVYTLPPSRCELTKNQVSLSCAVKGFYPSDIAVEWESNGQPENNYKTTPPVLDSDGSFFLVSKLTVDKSRWQQGNVFSCSVMHEALHNHYTQKSLSLSP
light: DIQMTQSPSSLSASVGDRVTITCRASQDIHKYIAWYQQKPGQAPRLLIQYTSTLQPGVPSRFSGSGSGTDYTFTISSLQPEDIATYYCLQYEQLRTFGGGTKVEIKRTVAAPSVFIFPPSDEQLKSGTASVVCLLNNFYPREAKVQWKVDNALQSGNSQESVTEQDSKDSTYSLSSTLTLSKADYEKHKVYACEVTHQGLSSPVTKSFNRGEC
notes: anti-epiregulin heterodimerized IgG1; also called H240-Kn061 Y235E
Consider B2, for which the “relative KD” value in test [1] was found to be 0.8 ratio; in test [2], 2.2 ratio; in test [3] it was 3.2 ratio.

B3: H240-Kn061/H240-Hl071/L73-k0 variant with Y234H in H240-Kn061 (antibody, human IgG1, kappa)
heavy 1: QDQLVQSGAEVKKPGASVKVSCKASGFNIKDTYIQWVRQAPGQGLEWMGRIDPLRKQTKYREKFEGRVTITADTSTNTAYMELSSLRSEDTAVYYCVRSGREFDYWGQGTLVTVSSASTKGPSVFPLAPSSKSTSGGTAALGCLVKDYFPEPVTVSWNSGALTSGVHTFPAVLQSSGLYSLSSVVTVPSSSLGTQTYICNVNHKPSNTKVDKKVEPKSCDKTHTCPPCPAPEHYWGPSVFLFPPKPKDTLMISRTPEVTCVVVDVSDEDPEVKFNWYVDGVEVHNAKTKPREEQYNATYRVVSVLTVLHQDWLNGKEYKCKVSNKALPAPIEKTISKAKGQPREPQVCTLPPSRDELTKNQVSLWCLVKGFYPSDIAVEWESNGQPENNYKTTPPVLDSDGSFFLYSKLTVDKSRWQQGNVFSCSVMHEALHNHYTQKSLSLSP
heavy 2: QDQLVQSGAEVKKPGASVKVSCKASGFNIKDTYIQWVRQAPGQGLEWMGRIDPLRKQTKYREKFEGRVTITADTSTNTAYMELSSLRSEDTAVYYCVRSGREFDYWGQGTLVTVSSASTKGPSVFPLAPSSKSTSGGTAALGCLVKDYFPEPVTVSWNSGALTSGVHTFPAVLQSSGLYSLSSVVTVPSSSLGTQTYICNVNHKPSNTKVDKKVEPKSCDKTHTCPPCPAPELLGGPSVFLFPPKPKDTLMISRTPEVTCVVVDVSHEDPEVKFNWYVDGVEVHNAKTKPREEQYNSTYRVVSVLTVLHQDWLNGKEYKCKVSNDALPMPIEETISKAKGQPREPQVYTLPPSRCELTKNQVSLSCAVKGFYPSDIAVEWESNGQPENNYKTTPPVLDSDGSFFLVSKLTVDKSRWQQGNVFSCSVMHEALHNHYTQKSLSLSP
light: DIQMTQSPSSLSASVGDRVTITCRASQDIHKYIAWYQQKPGQAPRLLIQYTSTLQPGVPSRFSGSGSGTDYTFTISSLQPEDIATYYCLQYEQLRTFGGGTKVEIKRTVAAPSVFIFPPSDEQLKSGTASVVCLLNNFYPREAKVQWKVDNALQSGNSQESVTEQDSKDSTYSLSSTLTLSKADYEKHKVYACEVTHQGLSSPVTKSFNRGEC
notes: anti-epiregulin heterodimerized IgG1; also called H240-Kn061 Y234H
With B3, the “relative KD” value worked out at 1.3 ratio in test [1], 0.8 ratio in test [2] and 0.9 ratio in test [3].

B4: H240-Kn061/H240-Hl071/L73-k0 variant with Y234S in H240-Kn061 (antibody, human IgG1, kappa)
heavy 1: QDQLVQSGAEVKKPGASVKVSCKASGFNIKDTYIQWVRQAPGQGLEWMGRIDPLRKQTKYREKFEGRVTITADTSTNTAYMELSSLRSEDTAVYYCVRSGREFDYWGQGTLVTVSSASTKGPSVFPLAPSSKSTSGGTAALGCLVKDYFPEPVTVSWNSGALTSGVHTFPAVLQSSGLYSLSSVVTVPSSSLGTQTYICNVNHKPSNTKVDKKVEPKSCDKTHTCPPCPAPESYWGPSVFLFPPKPKDTLMISRTPEVTCVVVDVSDEDPEVKFNWYVDGVEVHNAKTKPREEQYNATYRVVSVLTVLHQDWLNGKEYKCKVSNKALPAPIEKTISKAKGQPREPQVCTLPPSRDELTKNQVSLWCLVKGFYPSDIAVEWESNGQPENNYKTTPPVLDSDGSFFLYSKLTVDKSRWQQGNVFSCSVMHEALHNHYTQKSLSLSP
heavy 2: QDQLVQSGAEVKKPGASVKVSCKASGFNIKDTYIQWVRQAPGQGLEWMGRIDPLRKQTKYREKFEGRVTITADTSTNTAYMELSSLRSEDTAVYYCVRSGREFDYWGQGTLVTVSSASTKGPSVFPLAPSSKSTSGGTAALGCLVKDYFPEPVTVSWNSGALTSGVHTFPAVLQSSGLYSLSSVVTVPSSSLGTQTYICNVNHKPSNTKVDKKVEPKSCDKTHTCPPCPAPELLGGPSVFLFPPKPKDTLMISRTPEVTCVVVDVSHEDPEVKFNWYVDGVEVHNAKTKPREEQYNSTYRVVSVLTVLHQDWLNGKEYKCKVSNDALPMPIEETISKAKGQPREPQVYTLPPSRCELTKNQVSLSCAVKGFYPSDIAVEWESNGQPENNYKTTPPVLDSDGSFFLVSKLTVDKSRWQQGNVFSCSVMHEALHNHYTQKSLSLSP
light: DIQMTQSPSSLSASVGDRVTITCRASQDIHKYIAWYQQKPGQAPRLLIQYTSTLQPGVPSRFSGSGSGTDYTFTISSLQPEDIATYYCLQYEQLRTFGGGTKVEIKRTVAAPSVFIFPPSDEQLKSGTASVVCLLNNFYPREAKVQWKVDNALQSGNSQESVTEQDSKDSTYSLSSTLTLSKADYEKHKVYACEVTHQGLSSPVTKSFNRGEC
notes: anti-epiregulin heterodimerized IgG1; also called H240-Kn061 Y234S
On to B4, for which the entries for the “relative KD” value in test [1], in test [2] and in test [3] were 1 ratio, 0.9 ratio and 0.9 ratio, respectively.
